Results as given in US20240182563A1 (GENOME, published 2024).

T1: human CNTN4-rabbit Fc (human; rabbit, UniProt Q8IWV2 19-1000, limits assumed)
T1 construct: not shown: rabbit Fc
T1 sequence (looked up): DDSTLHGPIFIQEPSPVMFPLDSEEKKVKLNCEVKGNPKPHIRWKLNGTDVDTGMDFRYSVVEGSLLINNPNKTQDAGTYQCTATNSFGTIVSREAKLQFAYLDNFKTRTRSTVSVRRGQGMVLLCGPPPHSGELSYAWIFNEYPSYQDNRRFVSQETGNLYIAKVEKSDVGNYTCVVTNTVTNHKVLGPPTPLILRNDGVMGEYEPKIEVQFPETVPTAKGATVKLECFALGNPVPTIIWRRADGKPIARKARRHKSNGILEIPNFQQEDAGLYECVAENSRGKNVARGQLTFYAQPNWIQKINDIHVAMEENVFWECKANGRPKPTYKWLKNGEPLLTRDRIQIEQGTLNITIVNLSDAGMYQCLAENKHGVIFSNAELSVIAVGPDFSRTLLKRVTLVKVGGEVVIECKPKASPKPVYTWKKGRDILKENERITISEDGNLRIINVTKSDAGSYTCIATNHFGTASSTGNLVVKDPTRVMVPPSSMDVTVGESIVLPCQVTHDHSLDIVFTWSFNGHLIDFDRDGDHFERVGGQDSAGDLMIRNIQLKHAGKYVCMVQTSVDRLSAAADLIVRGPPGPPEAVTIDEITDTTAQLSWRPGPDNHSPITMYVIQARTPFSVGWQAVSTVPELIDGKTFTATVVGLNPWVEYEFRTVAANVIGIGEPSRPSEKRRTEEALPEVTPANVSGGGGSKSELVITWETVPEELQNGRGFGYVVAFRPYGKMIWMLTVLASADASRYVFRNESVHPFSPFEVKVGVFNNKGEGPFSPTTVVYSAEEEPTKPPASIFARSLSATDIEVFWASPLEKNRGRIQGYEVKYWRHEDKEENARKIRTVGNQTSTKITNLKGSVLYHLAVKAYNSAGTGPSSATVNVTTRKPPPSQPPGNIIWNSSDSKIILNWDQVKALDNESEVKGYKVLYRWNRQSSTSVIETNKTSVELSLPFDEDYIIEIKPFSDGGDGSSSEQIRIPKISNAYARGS

T2: mouse CNTN4-rabbit Fc (mouse; rabbit, UniProt Q69Z26 19-1000, limits assumed)
T2 construct: not shown: rabbit Fc
T2 sequence (looked up): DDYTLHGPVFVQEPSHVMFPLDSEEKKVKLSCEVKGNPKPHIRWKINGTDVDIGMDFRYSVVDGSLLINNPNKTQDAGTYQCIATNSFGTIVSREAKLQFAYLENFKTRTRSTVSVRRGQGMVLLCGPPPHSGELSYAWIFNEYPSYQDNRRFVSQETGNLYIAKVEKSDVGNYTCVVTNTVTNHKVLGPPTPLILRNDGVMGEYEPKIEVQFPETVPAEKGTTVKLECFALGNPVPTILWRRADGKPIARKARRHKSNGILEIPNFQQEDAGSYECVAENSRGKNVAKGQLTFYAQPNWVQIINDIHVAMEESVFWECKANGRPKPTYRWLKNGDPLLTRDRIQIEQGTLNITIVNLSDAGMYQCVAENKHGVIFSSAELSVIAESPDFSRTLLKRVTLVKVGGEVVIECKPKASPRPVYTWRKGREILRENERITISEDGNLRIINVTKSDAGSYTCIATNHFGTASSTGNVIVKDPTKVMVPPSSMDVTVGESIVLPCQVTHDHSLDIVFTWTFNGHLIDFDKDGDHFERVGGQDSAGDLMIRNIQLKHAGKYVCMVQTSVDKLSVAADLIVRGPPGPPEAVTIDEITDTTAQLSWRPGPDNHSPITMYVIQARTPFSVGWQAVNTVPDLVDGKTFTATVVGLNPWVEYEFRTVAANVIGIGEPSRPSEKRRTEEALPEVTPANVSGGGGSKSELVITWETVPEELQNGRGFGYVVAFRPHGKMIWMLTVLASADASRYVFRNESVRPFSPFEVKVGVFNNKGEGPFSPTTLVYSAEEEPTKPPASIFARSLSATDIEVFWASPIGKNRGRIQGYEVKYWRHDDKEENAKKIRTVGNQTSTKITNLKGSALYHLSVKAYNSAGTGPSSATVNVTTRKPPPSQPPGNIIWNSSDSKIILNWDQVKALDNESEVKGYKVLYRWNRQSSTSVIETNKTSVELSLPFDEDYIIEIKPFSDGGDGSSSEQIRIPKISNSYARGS

T3: human CNTN4 antigen expressed on the cell membrane of 293FT cells (human, UniProt Q8IWV2 19-1000)
T3 construct: whole, on cells; also called Human CNTN4 transfected cell
T3 sequence (looked up): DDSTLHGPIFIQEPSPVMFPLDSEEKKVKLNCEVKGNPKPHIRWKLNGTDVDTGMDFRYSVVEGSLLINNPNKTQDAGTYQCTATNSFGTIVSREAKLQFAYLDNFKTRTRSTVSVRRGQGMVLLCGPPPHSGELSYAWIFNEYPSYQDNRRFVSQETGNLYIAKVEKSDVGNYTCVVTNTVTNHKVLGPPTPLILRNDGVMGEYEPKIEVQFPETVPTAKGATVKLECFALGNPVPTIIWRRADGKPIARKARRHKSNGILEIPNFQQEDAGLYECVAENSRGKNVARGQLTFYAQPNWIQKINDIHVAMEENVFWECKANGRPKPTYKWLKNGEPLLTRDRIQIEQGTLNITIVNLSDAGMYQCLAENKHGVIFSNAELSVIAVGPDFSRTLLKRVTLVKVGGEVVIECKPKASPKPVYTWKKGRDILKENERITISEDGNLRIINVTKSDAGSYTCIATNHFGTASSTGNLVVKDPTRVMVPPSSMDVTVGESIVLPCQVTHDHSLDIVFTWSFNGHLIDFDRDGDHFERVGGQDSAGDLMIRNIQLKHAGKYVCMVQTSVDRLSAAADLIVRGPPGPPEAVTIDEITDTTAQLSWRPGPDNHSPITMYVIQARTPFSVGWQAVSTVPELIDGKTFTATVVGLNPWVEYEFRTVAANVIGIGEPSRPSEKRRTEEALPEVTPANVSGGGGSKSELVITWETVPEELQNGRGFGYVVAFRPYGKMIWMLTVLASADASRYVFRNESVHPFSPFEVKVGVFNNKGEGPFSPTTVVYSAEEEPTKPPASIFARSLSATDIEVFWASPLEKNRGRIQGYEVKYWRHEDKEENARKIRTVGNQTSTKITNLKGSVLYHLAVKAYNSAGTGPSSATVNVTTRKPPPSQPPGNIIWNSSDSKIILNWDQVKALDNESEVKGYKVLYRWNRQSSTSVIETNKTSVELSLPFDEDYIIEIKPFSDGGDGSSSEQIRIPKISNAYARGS


Columns and labels:
[1] = target: T1, human CNTN4-rabbit Fc; experiment: ELISA, plate coated with antigen-rabbit Fc, anti-human IgG Fc-HRP
Experimental: (§1) An ELISA tests were performed on a total of 25 scFv-hCks and a total of 27 IgGs for which the expression was confirmed in Example 1.2. An ELISA plate was coated with 200 ng of antigens (human CNTN4-rabbit Fc or mouse CNTN4-rabbit Fc). 200 ng of a negative control (human antigen-rabbit Fc) for a tagging protein was used. For antibody binding, anti-CNTN4 scFv-hCk was serially diluted from a maximum of 1 μM to 0.001 nM by 1/10×each, and anti-CNTN4 IgG was serially diluted from a maximum of 10 nM to 0.00001 nM by 1/10×each, thereby binding to the antigen. Anti-human kappa-HRP or anti-human IgG Fc-HRP was used as the secondary antibody for antibody detection. Color was developed using ABTS, which is a color developing reagent, and the absorbance at 405 nm was measured.

[2] = target: T2, mouse CNTN4-rabbit Fc; experiment: as above
Experimental: as §1

[3] = target: T3, human CNTN4 antigen expressed on the …; experiment: FACS, 293FT cells transfected with human CNTN4, 40 ug/mL, anti-hFc-PE

Binder	EC50 [1] [nM]	EC50 [2] [nM]	Shift % [3] [%]
anti-CNTN4 IgG A13WB2 (antibody, V domains shown, human IgG4 (S228P)) VH: AVTLDESGGGLHTPGGALSLVCKASGFTFSSYGMAWVRQAPGKGLEWVAGITSSGSSAGYGPAVKGRATISRDNGQSTVRLQLNNLRAEDTATYYCAKDGYIYSGADSDSIDAWGHGTEVIVSS VL: ALTQPSSVSANLGGTVEITCSGGYSGYGWYQQKSPGSAPVTLIYYNDKRPSDIPSRFSGSKSGSTGTLTITGVQAEDEAVYFCGSRDSSTYVDIFGAGTTLTVL	0.01	0.01	86.6
anti-CNTN4 IgG A13WB7 (antibody, V domains shown, human IgG4 (S228P)) VH: AVTLDESGGGLHTPGGALSLVCKASGFTFSSYGMAWVRQAPGKGLEWVAGITSSGSSAGYGPAVKGRATISRDNGQSTVRLQLNNLRAEDTATYYCAKDGYIYSGADSDSIDAWGHGTEVIVSS VL: ALTQPSSVSANPGETVKITCSGGGSSSYYNYGWYQQKSPGSAPVTVIYYNDKRPSDIPSRFSGSKSGSTGTLTITGVQAEDEAVYYCGSWDSSTYSDIFGAGTTLTVL	0.01	0.01	86.4
anti-CNTN4 IgG A35SF8 (antibody, V domains shown, human IgG4 (S228P)) VH: AVTLDESGGGLHTPGGALSLVCKASGFTFSSYGMAWVRQAPGKGLEWVAGITSSGSSAGYGPAVKGRATISRDNGQSTVRLQLNNLRAEDTATYYCAKDGYIYSGADSDSIDAWGHGTEVIVSS VL: ALTQPSSVSANLGGTVKITCSGGGGSYGWFQQKSPGSAPVTLIYNNNNRPSDIPSRFSGSKSGSTATLTITGVQAEDEAVYFCGGYDDSTYVGMFGAGTTLTVL	0.01	0.02	80.4
anti-CNTN4 IgG A13WB73 (antibody, V domains shown, human IgG4 (S228P)) VH: AVTLDESGGGLHTPGGVLSLVCKASGFTFSSYGMAWVRQAPGKGLEWVAGITSSGSSAGYGPAVKGRATISRDNGQSTVRLQLNNLRAEDTATYYCAKDGYIYSGADSDSIDAWGHGTEVIVSS VL: ALTQPSSVSANLGGTVEITCSGGYSGYGWYQQMSPGSAPVTLTYYNDKRPSNIPSRFSGSKSGSTATLAITGVQAEDEAVYYCGSWDTSTNTPIFGAGTTLTVL	0.01	0.01	86.4
anti-CNTN4 IgG A13WB24 (antibody, V domains shown, human IgG4 (S228P)) VH: AVTLDESGGGLHTPGGALSLVCKASGFTFSSYGMAWVRQAPGKGLEWVAGITSSGSSAGYGPAVKGRATISRDNGQSTVRLQLNNLRAEDTATYYCAKDGYIYSGADSDSIDAWGHGTEVIVSS VL: ALTQPSSVSANPGGTVEITCSGGGNNNYGWYQQKSPGSAPVTLIYYNDNRPSDIPSRFSGSKSGSTATLTITGVQAEDEAVYYCGGYDISYVDIFGAGTTLTVL	0.01	0.01	85.1
anti-CNTN4 IgG A13WB4 (antibody, V domains shown, human IgG4 (S228P)) VH: AVTLDESGGGLHTPGGALSLVCKASGFTFSSYGMAWVRQAPGKGLEWVAGITSSGSSAGYGPAVKGRATISRDNGQSTVRLQLNNLRAEDTATYYCAKDGYIYSGADSDSIDAWGHGTEVIVSS VL: ALTQPSSVSANPGETVEITCSGGSSDYGYGWYQQKSPGSAPVTVIYYNNNRPSDIPSRFSGSLSGSTNTLTITGVQADDEAVYFCGSRDSSSGYVDIFGAGTTLTVL	0.01	0.01	84.7
anti-CNTN4 IgG A13SF1 (antibody, V domains shown, human IgG4 (S228P)) VH: AVTLDESGGGLQTPGGGLSLVCKASGFTFSSYGMAWVRQAPGKGLEWVAGITSSGSSAGYGPAVKGRATISRDNGQSTVRLQLNNLRAEDTATYYCAKDGYIYSGADSDSIDAWGHGTEVIVSS VL: ALTQPSSVSANLGGTVKITCSGGGGSYGWFQQKSPGSAPVTLIYNNNNRPSDIPSRFSGSKSGSTATLTITGVQAEDEAVYFCGGYDSSTYVGTFGAGTTLTVL	0.01	0.02	83.8
anti-CNTN4 IgG A35SF14 (antibody, V domains shown, human IgG4 (S228P)) VH: AVTLDESGGGLHTPGGALSLVCKASGFTFSSYGMAWVRQAPGKGLEWVAGITSSGSSAGYGPAVKGRATISRDNGQSTVRLQLNNLRAEDTATYYCAKDGYIYSGADSDSIDAWGHGTEVIVSS VL: ALTQPSSVSANPGETIKITCSGGGGSYGWYQQKSPGSAPVTVIYNGNNRPSDIPSRFSGSKSGSTATLTITGVQAEDEAVYFCGGYDSGTYSGIFGAGTTLTVL	0.01	0.01	81.6
anti-CNTN4 IgG A35SF38 (antibody, V domains shown, human IgG4 (S228P)) VH: AVTLDESGGGLHTPGGALSLVCKASGFTFSSYGMAWVRQAPGKGLEWVAGITSSGSSAGYGPAVKGRATISRDNGQSTVRLQLNNLRAEDTATYYCAKDGYIYSGADSDSIDAWGHGTEVIVSS VL: ALTQPSSVSANLGGTVKLTCSGSSGSYGWYQQKSPGSAPVTLIYNNNNRPSDIPSRFSGSTSGSTGTLTITGVRAEDEAVYFCGGYDSSTYVAIFGAGTTLTVL	0.01	0.01	77.9
anti-CNTN4 IgG A13SF21 (antibody, V domains shown, human IgG4 (S228P)) VH: AVTLDESGGGLHTPGGALSLVCKASGFTFSSYGMAWVRQAPGKGLEWVAGITSSGSSAGYGPAVKGRATISRDNGQSTVRLQLNNLRAEDTATYYCAKDGYIYSGADSDSIDAWGHGTEVIVSS VL: ALTQPSSVSANLGGTVEITCSGSSGSYGWYQQKAPGSAPVTVIYNNNNRPSGIPSRFSGALSGSTATLTITGVQAEDEAVYFCGGYDSSTYVGIFGAGTTLTVL	0.01	0.01	80.4
anti-CNTN4 IgG A13WB25 (antibody, V domains shown, human IgG4 (S228P)) VH: AVTLDESGGGLHTPGGALSLVCKASGFTFSSYGMAWVRQAPGKGLEWVAGITSSGSSAGYGPAVKGRATISRDNGQSTVRLQLNNLRAEDTATYYCAKDGYIYSGADSDSIDAWGHGTEVIVSS VL: ALTQPSSVSANLGGTVEITCSGGGGSYGWYQQKSPGSAPVTVIYYNDKRPSDIPSRFSGSKSGSTGTLTITGVQAEDEAVYFCGGYDGSTYAGIFGAGTTLTVL	0.01	0.01	82.4
anti-CNTN4 IgG A13SF16 (antibody, V domains shown, human IgG4 (S228P)) VH: AVTLDESGGGLQTPGGGLSLVCKASGFTFSSYGMAWVRQAPGKGLEWVAGITSSGSSAGYGPAVKGRATISRDNGQSTVRLQLNNLRAEDTATYYCAKDGYIYSGADSDSIDAWGHGTEVIVSS VL: ALTQPSSVSANLGGTVKITCSGSGGSYGWFQQKSPGSAPVTLIYNNDNRPSDIPSRFSGSKSGSTATLTITGVQAEDEAVYFCGGYDSSTYVDTFGAGTTLTVL	0.01	0.01	84.8
